Here are results for four molecules from patent publication US12303551B2, “Cellular immunotherapy compositions and uses thereof” (CERO THERPEUTICS HOLDINGS, INC., priority 2018, dated 2025).

In assay [1] the test system is SCC152 target cells. Nature of the assay: Phagocytosis of SCC152 by CD4+ T cell/CER, fluorescence microscopy with hybrid capture. It counts as cell-based. Particulars: TRAF-domain CERs, 4 hours, 1:1:0.5 (CD8:CD4:target cell); versus CD4+ control + CD8+/E7 TCR. As for the experimental part: FIG. 28 is a bar graph representing quantification of CD4+ T cell-CER mediated phagocytosis of SCC152 target cells. Results calculated as ((number of phagocytic target events)/(total number of effectors))*100 from 3×3 40× images, 4 hours after initiation of co-culture assay. CD8+ T cells transduced with HPV16 E7 TCR and CD4+ T cells transduced with selected CERs (CER5, CER17, CER19, CER21, CER23, CER26, CER27, CER103b, CER104, CER105, CER106, or CER116) were co-cultured with SCC152 squamous head and neck carcinoma target cells at a 1:1:0.5 ratio for 4 hours and imaged.
FIG. 29 is a bar graph representing quantification of CD4+ T cell-CER mediated phagocytosis of SCC152 target cells. Results calculated as (median area ratio of target events in effector cells*% phagocytosis) from 3×3 40× images, 4 hours after initiation of co-culture assay. CD8+ T cells transduced with HPV16 E7 TCR and CD4+ T cells transduced with selected CERs (CER5, CER17, CER19, CER21, CER23, CER26, CER27, CER103b, CER104, CER105, CER106, or CER116) were co-cultured with SCC152 squamous head and neck carcinoma target cells at a 1:1:0.5 ratio for 4 hours and imaged.
(§1) FIG. 55 is a bar graph representing quantification of CD4+ T cell-CER mediated phagocytosis of SCC152 target cells. Percent phagocytosis was calculated as ((number of phagocytic target events)/(total number of effector cells))*100. These numbers were calculated from 3×3 images captured by Keyence BZ-X710 fluorescence microscope at 40× resolution, 4 hours after initiation of co-culture assay. CD8+ T cells transduced with HPV16 E7 TCR and CD4+ T cells transduced with a selected CER (CER29, CER30, CER110, CER112, CER113, CER114, CER116, or CER117) were co-cultured with SCC152 target cells at a 1:1:0.5 ratio (CD8:CD4:target cell) for 4 hours and imaged.
as §1, with “56” for “55”, “Adjusted phagocytic index” for “Percent phagocytosis”, “(median area ratio” for “((number”, “of” for “of phagocytic”, “events in” for “events)/(total number of”, “cells*% phagocytosis).” for “cells))*100.”
Phagocytic activity of CD4+ T cell/CER+CD8+ T cell/HPV16 E7 TCR combinations co-cultured with SCC152 cells was visualized and quantified using KEYENCE BZ-X710 fluorescence microscope, […] and hybrid capture software.

The subject of assay [2] is SCC152 cells. Nature of the assay: Elimination of GFP-expressing SCC152 target cells over time (quantification and time lapse imaging). It counts as cell-based. As for the experimental part: Target SCC152 cells were co-cultured with CD8+ T cells transduced with HPV E7 TCR+CD4+ T cells transduced with a selected CER, or controls (CD8+ T cell transduced with HPV E7 TCR+CD4+ transduced control) at a 1:1:1 ratio. The number of target cells were quantified using imaging software. 0 hours, 24 hours, and 48 hours are shown from left to right.
FIG. 21 is time lapse imaging from 96-well co-culture experiments comprising CD8+ T cells transduced with HPV16 E7 TCR+CD4+ T cells transduced with CER5, CER17 or CER19 incubated with SCC152 target cells at a 1:1:1 ratio. SCC152 HPV+ target cells were quantified using automated cell counting software.
FIG. 22 is time lapse imaging from 96-well co-culture experiments comprising CD8+ T cells transduced with HPV16 E7 TCR+CD4+ T cells transduced with CER21, CER23 or CER26 incubated with SCC152 target cells at a 1:1:1 ratio. SCC152 HPV+ target cells were quantified using automated cell counting software.
FIG. 23 is time lapse imaging from 96-well co-culture experiments comprising CD8+ T cells transduced with HPV16 E7 TCR+CD4+ T cells transduced with CER103b, CER104 or CER105 incubated with SCC152 target cells at a 1:1:1 ratio. SCC152 HPV+ target cells were quantified using automated cell counting software.
FIG. 24 is time lapse imaging from 96-well co-culture experiments comprising CD8+ T cells transduced with HPV16 E7 TCR+CD4+ T cells transduced with CER106, CER116 or CER27 incubated with SCC152 target cells at a 1:1:1 ratio. SCC152 HPV+ target cells were quantified using automated cell counting software.
FIG. 57 is a bar graph showing quantification of loss of SCC152 HPV16+ target cells over time during co-culture assays. SCC152 cells were transduced with green fluorescent protein (GFP) and co-cultured with CD8+ T cells transduced with HPV16 E7 TCR and CD4+ T cells transduced with a selected CER (CER29, CER30, CER110, CER112, CER113, CER114, CER116, or CER117) or a CD4+ T cell control at a 1:1:1 ratio (CD8:CD4:target cell). The number of target cells was quantified at various time points during co-culture (0 hrs, 12 hrs, 24 hrs, and 36 hrs) using fluorescence microscopy and imaging software.
FIG. 58 are fluorescence micrograph images of the co-culture assay described in FIG. 57, showing clearance of the SCC152 cells (pink) as co-culture with CD8+ T cells transduced with HPV16 E7 TCR and CD4+ T cells transduced with a selected CER (columns from left to right: control, CER29, CER30, CER110, or CER112) progresses (rows from top to bottom: 0 hrs, 12 hrs, 24 hrs, and 36 hrs).
FIG. 59 are fluorescence micrograph images of the co-culture assay described in FIG. 57, showing clearance of the SCC152 cells (pink) as co-culture with CD8+ T cells transduced with HPV16 E7 TCR and CD4+ T cells transduced with a selected CER (columns from left to right: control, CER113, CER114, CER116, or CER117) progresses (rows from top to bottom: 0 hrs, 12 hrs, 24 hrs, and 36 hrs).
Elimination of target SCC152 cells was also detected by quantifying green fluorescent protein expression by SCC152 cells over time (0 hr, 24 hr, 48 hr) during co-incubation with CD8+ T cells transduced with HPV16 E7 specific TCR+ CD4 T cells transduced with selected CER (see, FIG. 20).
Elimination of target SCC152 cells was also detected by quantifying green fluorescent protein expression by SCC152 cells over time (0 hr, 12 hr, 24 hr, 36 hr) during co-incubation with CD8+ T cells transduced with HPV16 E7 specific TCR+ CD4+ T cells transduced with selected CER (CER29, CER30, CER110, CER112, CER113, CER114, CER116, or CER117) (see, FIG. 57).

B1: CER110: Chimeric engulfment receptor: Tim4 binding, Tim4 transmembrane, TRAF6 and DAP12 signaling; SEQ ID NO: 145 (protein)
chain: MSKGLLLLWLVTELWWLYLTPAASEDTIIGFLGQPVTLPCHYLSWSQSRNSMCWGKGSCPNSKCNAELLRTDGTRIISRKSTKYTLLGKVQFGEVSLTISNTNRGDSGVYCCRIEVPGWFNDVKKNVRLELRRATTTKKPTTTTRPTTTPYVTTTTPELLPTTVMTTSVLPTTTPPQTLATTAFSTAVTTCPSTTPGSFSQETTKGSAFTTESETLPASNHSQRSMMTISTDIAVLRPTGSNPGILPSTSQLTTQKTTLTTSESLQKTTKSHQINSRQTILIIACCVGFVLMVLLFLAFLMSLLNCENSCGSSQSESDCCVAMASSCSAVTKDDSVGGTASTGNLSSSFMEEIQGYDVEFDPPLESKYECPICLMALREAVQTPCGHRFCKACIIKSIRDAGHKCPVDNEILLENQLFPDNFAKREILSLMVKCPNEGCLHKMELRHLEDHQAHCEFALMDCPQCQRPFQKFHINIHILKDCPRRQVSCDNCAASMAFEDKEIHDQNCPLANVICEYCNTILIREQMPNHYDLDCPTAPIPCTFSTFGCHEKMQRNHLARHLQENTQSHMRMLAYFLGRLVPRGRGAAEAATRKQRITETESPYQELQGQRSDVYSDLNTQRPYYK
modifications: CER110, amino acids 1-22 are signal peptide
Turning to B1, the “engulfment of SCC152 target cells (percent phagocytosis, adjusted phagocytic index)” value in assay [1] is given as “enhanced engulfment”.

B2: CER30: Chimeric engulfment receptor: Tim4 binding, Tim4 transmembrane, TRAF2 signaling; SEQ ID NO: 120 (protein)
chain: MSKGLLLLWLVTELWWLYLTPAASEDTIIGFLGQPVTLPCHYLSWSQSRNSMCWGKGSCPNSKCNAELLRTDGTRIISRKSTKYTLLGKVQFGEVSLTISNTNRGDSGVYCCRIEVPGWFNDVKKNVRLELRRATTTKKPTTTTRPTTTPYVTTTTPELLPTTVMTTSVLPTTTPPQTLATTAFSTAVTTCPSTTPGSFSQETTKGSAFTTESETLPASNHSQRSMMTISTDIAVLRPTGSNPGILPSTSQLTTQKTTLTTSESLQKTTKSHQINSRQTILIIACCVGFVLMVLLFLAFLMAAASVTPPGSLELLQPGFSKTLLGTKLEAKYLCSACRNVLRRPFQAQCGHRYCSFCLASILSSGPQNCAACVHEGIYEEGISILESSSAFPDNAARREVESLPAVCPSDGCTWKGTLKEYESCHEGRCPLMLTECPACKGLVRLGEKERHLEHECPERSLSCRHCRAPCCGADVKAHHEVCPKFPLTCDGCGKKKIPREKFQDHVKTCGKCRVPCRFHAIGCLETVEGEKQQEHEVQWLREHLAMLLSSVLEAKPLLGDQSHAGSELLQRCESLEKKTATFENIVCVLNREVERVAMTAEAC
modifications: CER30, amino acids 1-22 are signal peptide
As to B2, the “engulfment of SCC152 target cells (percent phagocytosis, adjusted phagocytic index)” value in assay [1] was “enhanced engulfment”. Also, the “elimination of SCC152 cells, time lapse imaging” value in assay [2] (0 to 36 hrs, compared to the control) is “enhanced elimination of SCC152 cells”. In addition, the “elimination of SCC152 cells (GFP quantification)” value in assay [2] (by 36 hrs, 1:1:1 ratio (CD8:CD4:target cell), compared to control) was “nearly complete elimination”.

B3: CER27: Chimeric engulfment receptor: Tim4 binding, Tim4 transmembrane, TLR2 signaling; SEQ ID NO: 98 (protein)
chain: MSKGLLLLWLVTELWWLYLTPAASEDTIIGFLGQPVTLPCHYLSWSQSRNSMCWGKGSCPNSKCNAELLRTDGTRIISRKSTKYTLLGKVQFGEVSLTISNTNRGDSGVYCCRIEVPGWFNDVKKNVRLELRRATTTKKPTTTTRPTTTPYVTTTTPELLPTTVMTTSVLPTTTPPQTLATTAFSTAVTTCPSTTPGSFSQETTKGSAFTTESETLPASNHSQRSMMTISTDIAVLRPTGSNPGILPSTSQLTTQKTTLTTSESLQKTTKSHQINSRQTILIIACCVGFVLMVLLFLAFLHRFHGLWYMKMMWAWLQAKRKPRKAPSRNICYDAFVSYSERDAYWVENLMVQELENFNPPFKLCLHKRDFIPGKWIIDNIIDSIEKSHKTVFVLSENFVKSEWCKYELDFSHFRLFDENNDAAILILLEPIEKKAIPQRFCKLRKIMNTKTYLEWPMDEAQREGFWVNLRAAIKS
modifications: CER27, amino acids 1-22 are signal peptide
Consider B3, for which the “number of SCC152 cells in time lapse imaging” value in assay [2] (96-well co-culture, CD8+/E7 TCR + CD4+/CER + SCC152 1:1:1, compared to control) was “decreasing in numbers over time”.

B4: CER29: Chimeric engulfment receptor: Tim4 binding, Tim4 transmembrane, TRAF6 signaling; SEQ ID NO: 99 (protein)
chain: MSKGLLLLWLVTELWWLYLTPAASEDTIIGFLGQPVTLPCHYLSWSQSRNSMCWGKGSCPNSKCNAELLRTDGTRIISRKSTKYTLLGKVQFGEVSLTISNTNRGDSGVYCCRIEVPGWFNDVKKNVRLELRRATTTKKPTTTTRPTTTPYVTTTTPELLPTTVMTTSVLPTTTPPQTLATTAFSTAVTTCPSTTPGSFSQETTKGSAFTTESETLPASNHSQRSMMTISTDIAVLRPTGSNPGILPSTSQLTTQKTTLTTSESLQKTTKSHQINSRQTILIIACCVGFVLMVLLFLAFLMSLLNCENSCGSSQSESDCCVAMASSCSAVTKDDSVGGTASTGNLSSSFMEEIQGYDVEFDPPLESKYECPICLMALREAVQTPCGHRFCKACIIKSIRDAGHKCPVDNEILLENQLFPDNFAKREILSLMVKCPNEGCLHKMELRHLEDHQAHCEFALMDCPQCQRPFQKFHINIHILKDCPRRQVSCDNCAASMAFEDKEIHDQNCPLANVICEYCNTILIREQMPNHYDLDCPTAPIPCTFSTFGCHEKMQRNHLARHLQENTQSHMRMLA
modifications: CER29, amino acids 1-22 are signal peptide
As for B4, the “engulfment of SCC152 target cells (percent phagocytosis, adjusted phagocytic index)” value in assay [1] is on record as “enhanced engulfment”.
